Data from the nanobody polyreactivity screen of Harvey et al. (2022).

Assay: yeast display, Sf9 membrane polyspecificity reagent, FACS + sequencing; frameworks hold sequencing errors
How it was run: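 Using colony PCR, genes from sorted yeast display clones were amplified, then sequenced on MiSeq at 2 × 250 and filtered by CDR length. The clones had been stained with 10% biotinylated, detergent-solubilized Sf9 membrane reagent for 1 hour at 4 °C and sorted by FACS into low and high (top ~1%) gates on anti-HA and streptavidin fluorescence. Polyreactivity labels come from the gate of origin.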

| Sequence | polyreactivity (PSR sort gate) |
| --- | --- |
| QVQLVESGGGLVQAGGSLRLSCAASGRTFPYYAMGGYRKAPGKERELLASISRGGNTNYADSVKGRFTISRDNAKNTVYLQMNSLKPEATAVYYCAADYYLAYGSRRGGYWGQGTQVTVSS | high polyreactivity |
| QVQLVESGGGLVQAGGSLRLSCAASGSILAGYAMGWYRQAPGKERELVAAITTGGGSTYYADSVKGRFTISRDNAKNTVYLQMNSLKPEDTAVYYCAAYRKPGSWTWWVRGYGYWGQGTQVTVSS | low polyreactivity |
| QVQLVESGGGLVQAGGSLRLSCAATGSIFVPNTMGWYRQAPGKERELVADINSDTGRTYYADSVKGRFTISRDNAKNTVYLQMNSLKPEDTAVYYCAAEWYSFWSSVEYDYWGQGTQVTVSS | low polyreactivity |
| QLQLVESGGGLVQAGGSLRLSCAASGSIFRTNVMGWYRQAPGKERELVAAISRRGGSTYYADSVKGRFTISRDNAKNTVYLQMISLKPEDTAVYYCAASSSAYRDDYWGQGTQVTVSS | high polyreactivity |
| QVQLVESGGGLVQAGGSLRLSCAASGGTFLNYAMGWYRQAPGKERELVAVITNGDSTYYADSVKGRFTISRDNAKNSVYLQMNSLKPEDTAVYYCNADDWGQYNIWYDYWGQGTQVTVSS | low polyreactivity |
| QVQLVESGGGLVQAGGSLRLSCAASGIIFITYAMGWYRQAPGKERELVAAITNSGGGTYYADSVKGRFTNSRDNAKNTVYLQMNSLKPEDTAVYYCAARKTAYGYRYDYWGQGTQVTVSS | high polyreactivity |
| QVQLVESGGGIVQAGGSLRLRCAASGSTFKVYAIGWYRQATGKERELVAAISRGGRTYYADSVKGRFTISRDNAKNTVYLQMNSLKPEDTAVYYCAAGDQYKTRRNGYGYWGQGTQVTLSS | high polyreactivity |
| QVQLVESGGGLVQAGGSLRLSCAASGSTFSSNAMGWYRQAPGKEREFVAGISRSGGSTYYADSVKGRFTISRDNAKNTVYLQMNSLKPEDTAVYYCAARGGPGFKFGYWGQGTQVTVSS | high polyreactivity |
| QVQLVESGGGLVQAGGSLRLSSAASGFTFPAYTMGWSRQAPGKERELVAAITSSGGNTYYADSVKGRFTISRDNAKNTVYLQMNSLKPEDTAVYYCAADWDYPYDEAVSKDIDYDYWGQGTQVTVSS | low polyreactivity |
| QVQLVESGGGLVQAGGSLRLSCAASGSTIGYYARGWSRQAPGKERELVARIRSTGVSTFYADSVKGRFTISRDNAKNTVYLQMNSLKPEDTAVYYCAAPVSSLGWKHRQYTTWYEYWGQGTQVTVSS | high polyreactivity |
| QDQLVESGGGLVQAGGSLRLICAASARTFSHYPLGWYRQAAGKERELVATITRNGRITYYADSVKGRFTISRDNAKYTVYFQMNSLKPEDTAVYYFNKRWGGPIQFDYWGPGTQVTVSS | low polyreactivity |
| QVQLVESGGGLVQAGGSLRLSCAASGSIFSSNAMGWYRPAPGKERELVAAISWNGGRTYYADSVKGRFTISRDNAKNTVYLQMNSLKPEDTAVYYCATRFYRPRDGLYDYWGQGTQVTVSS | high polyreactivity |
| QVQLVESGGGLVQAGGSLRLSCAASGRIFSYYTMGWYRQAPGKERELVAAITSGDSTNYADSVKGRFTISRDNAKNTVYLQMNSLKPEDTAVYYCNARYSGWRSRVGSSHRPDGYWGQGTQVTVSS | high polyreactivity |
| QVQLVESGGGLVQAGGSLRLSCAASGNTFAENAMGWYRQAPGKERELVDAISNGGTTNYADSVKGRFTISRDNAKNTVYLQMNSLKPEDTAVYYCNAKFGISQPGHSGLLKMDYWGQGTQVTVSS | low polyreactivity |
| QVQLVESGGGLVQAGGSLRLSCAASGYIFADYAMGWYRQAPGKEREFVARIRYRDGSTYYADSVKGRFTISRDNAKNTVYLQMNSLKPEDTAVYYCAAQLGRYSYYPMDYWGKGTQVTVSS | high polyreactivity |
| QVQLVESGGGLVQAGGSHRLSCAASGSTFVLYALGWYRQAPGKERELVAVISWSGGSTYYADSVKGRFTISRDNAKNTVYLQMNSLKPEDTAVYYCAATGWSSFYYRFDYWGQGTQVTVSS | low polyreactivity |

| Sequence | polyreactivity (PSR sort gate) |
| --- | --- |
| QVQLVESGGGLVQAGGSLRLSCAASGSTFVTYTMGWYRQAPGKERELVAAISWSGDTTYADSVKGRFTISRDNAKNTVYLQMNSLKPEDTAVYYCAADDDWSGVEFDYWGQGTQVTVSS | low polyreactivity |
| QVQLVESGGGLVQAGGSLRLSCAASGRTFYINAMGWYRQAPGKERELVAAITWSGGRTYYADSVKGRFTISRDNAKNTVYLQMNSLKPEDTAVYYCNTRSYSYYVPYRYDYWGQGSQVTVSS | high polyreactivity |
| QVQLVESGGGLVQAGGSLRLSCAASGFTFTVYAMGWYRQAPGKERELVAVITSGDGTYYADSVKGRFTISRDNAKNTVYLQMHSLKPEDTAVYYCNARRYSSLRYRFAYDYWGQGTQVTESS | low polyreactivity |
| QVQLVESGGGLVQAGGSLRLSCAASGRTDAYYAMGWYRQAPGKERELVAAITRGGSTYYADSVKGRFTISRDNAKNTVYLQMNSLKPEDTAVYYCAAATSPYQDDYWGQGTQVTVSS | low polyreactivity |
| QVQLVESGGGLVQAGGSLRLSCAASGITFAFYAMGWYRQAPGKERELVAAISWSGTRTYYADSVKGRFTISRDNAKNTVYLQMNSLKPEDSAVYYCAADYQAGDKLYDYWGQGTQVTVSS | low polyreactivity |
| QVQLVESGGGLVQAGGSLRLSCAASRSIFYINAMGWYRQEPGKEMELVAAITSDGSTYYADSVKGRFTISRDNAKNTVYLQMNSLKPEDTAVYYCAADLTSDQYLYYWYWFYSWGQGTQVTVSS | low polyreactivity |
| QVQLVESGGGLVQAGGSLRLSCAASGFIFVYYAMGWYRQAPGKERELVAAISGHGGRTYYADSVKGRFTISRDNAKNTVYLQLNSLKPEDTAVYYCAALLYWRGYGYNYWGQGTQVTVSS | high polyreactivity |
| QVQLVESGGGLVQAGGSLRLSCAASGFTFTKYDMGWYRQAPGKERELVAVITWSGGSTYYADSVKGRFTISRDNAKNTVYLQMNSLKPEDTAVYYCNDEAPRYTYGRMDYWGQGTQVTVSS | low polyreactivity |
| QVQLVESGGGLVQAGGSLRLSCAASGRTFYRSALVWYRQAPGKERELVAAISYNGGSTFYADSVKGRFTISRDNAKYTVYLQMNSLKPEDTAVYYCAAGPRGTGKYYWGQGTQVTVSS | high polyreactivity |
| QVQLVESGGGLVQAGGRLRLSCAASGSICEPYVMGWYIQAPGKERELVAAIRQTGGSTYYADSVKGRFTISRDNAKNTVYLQMNSLKPEDTAVYYCNAEQKPSGLYDYRGVEGEMGYWGQGTQVTVSS | low polyreactivity |
| QVQLEESGGGLVQAGGSLRLSCAASGFTFDANAMGWYRQAPGKERELVAAISSGGGSTYYADSVKGRFTISRDNPKNTVYLQMNSLKPEDTAVYYCAKVYLVYKSYPYDYWGLGTQVTVSS | high polyreactivity |
| QVQLVESGGGLVQAGGSLRLSCAASGSIFNPNAMGWYRQAPGKEREVVAAIDSGGTTDYADSVKGRFTISRDNAKNTVYLQINSLKPEDTAVYYCNADRTVTSSSFTDYDYWGQGTQVTVSS | high polyreactivity |
| QVQLVESGGGLVQAGGSLRLSCAASGRTFYFYVMGWYRQAPGKERELVARISWSGGSTYYADSVKGRFTISRDNAKNTVYLQMNSLKPEDTAVYYCARQYKYPSSGEYDSWGQGTQVSVSS | low polyreactivity |
| QVQLVESGGGLVQAGVSLRLSCAASGFIFWFYAMGWYRQAPGKERELVAAINWSGSYTYYADSVKARFTISRDNAKNTVYLQMNSLKPEDTAVYYCNALFSYGYWRVRYNYWGQGTQVTVSS | high polyreactivity |
| QVQLVESGGGLVQAGGSLRLSCAASGRTFLKNAMGWYRQAPGKERELVAAITSGGSTNYADSVKGRFTISRDNAKNTVYLQMNSLKPEDTAVYYCNAPSYWYYPVLGSFLTFDYWGQGTQVTVSS | low polyreactivity |
